Target: the molecule itself
Assay: co-IP

B1: Slk19 (recombinant; Slk19-HA-His and Slk19-Myc-His) (natural protein, budding yeast, UniProt Q08581 1-821, looked up)
chain: MNEVPTTPVRLILGQAQQREQNSENCSQERNPRTFNSEPDSSFNSPGSSQFVIHPHEPLEKEKDEKQDLDRSIDYGRSSALNNKNNANPLENIDINKMFDDKKSDSGTNDDKGGASTSDKHVLALNYSPIRVEMNSSEKRSDKNVDVDENDKEGSHINKKLKLQLESVPDLKQSSTKDIINDKEEIMSSPMAIDMIETNISPNKFIINDGVERNDSFNINTDTLKLENDINEKQQEEDFIKSNSNNVVNIDNAYKEKEDEENDITNSHINRLTPLYETSARESNSNEEGRNDYDDDNQLDIRHDNFQIVAKRNEELTDQIYHLNQMLNSLISKNESLSFQYEKLNKNHQLLIDLTNEKLDKLNTERESDIAKVEKFKKRIKELNTEIKVLNSNQKILQEKFDASITEVNHIKGEHENTVNTLQQNEKILNDKNVELENMKAELKGNNDKLSEYETTLNDLNSRIVQLNDKIESTDIVLKSKENELDNLKLSLKETLSISKDFNDSDLIGQINELISTKNNLQQKMDDLNNLNDDNLKVVQDKLIKNEETLKLKEAEIDSLNSEMDELKKQITSKDDEFKMWQSKYETVEDEAKIRNAEVTELNGDIEDLKESKLHLEETITELENKVHKLENECELEKQKFEKTSLELESLQLKNSNIQAEHIKELENLHENLISLQNELKISSDRITTLTKENEVLMEQNNNNNNSVTLSNDQKDRDDEKIKSLGKQVQDWKEKYEAKEKDTNKRLKLLAEDLYIQYSSKHEQKVKLLKKGYENKYQNKFDQLNLENKTLSEEIEQLNKQLSSEREEKQELLKLLENEKK
binding result: binds

— article PMC3583661 (Molecular Biology of the Cell, 2013)
